Assay results: US20190275084A1 (KYMAB, published 2019)

B1: 10A07 (human) (antibody, V domains shown)
VH: EVQLVESGGVLVQPGGSLRLSCAASGFTFSSYIMTWVRQAPGKGLEWVSGISGSGGGTYYADSMKGRFTISRDNSKNTLYLQMNSLRVEDTAVYYCAKDRLGPITLVRGGYYYGMDVWGQGTTVTVSS
VL: DIQMTQSPSSLSASVGDRVTITCRASQSISDYLNWYQQKPGKAPKFLIYAASSLQSGVPSRFSGSGSGTDFTLTVSSLQPEDFATYYCQQSYSTPRTFGQGTRVEIKR
notes: also called 10A07 IgG4PE; 10A7 IgG4-PE
B2: 2D10 (human) (antibody, human IgG4 S228P, kappa, V domains shown)
VH: EVQLVESGGGLVQPGGSLRLSCAASGFTFSNYAMNWVRQAPGKGLEWVSTISGSGGATRYADSVKGRFTISRDNSRNTVYLQMNSLRVEDTAVFYCTKDRLIMATVRGPYYYGMDVWGQGTTVTVSS
VL: DIQMTQSPSSLSASVGDRVTITCRASQSISSYLNWYQQKPGKAPNLLIYAASSLQSGVPSRFSGSGSETDFTLTISSLQPEDFATYYCQQSHSVSFTFGPGTKVDIKR
notes: Recombinant fully human IgG4-PE/kappa; also called 02D10 IgG4-PE; 2D10 IgG4PE
B3: 10A07 (hybridoma) (antibody, V domains shown)
VH: B1 VH
VL: DIQMTQSPSSLSASVGDRVTITCRASQSISDYLNWYQQKPGKAPKFLIYAASSLQSGVPSRFSGSGSGTDFTLTVSSLQPEDFATYYCQQSYSTPRTFGQGTRVEIK
notes: Purified from hybridoma supernatant as a murine/human chimeric antibody (human variable domains, mouse constant regions); also called 10A7
B4: 2D10 (hybridoma) (antibody, V domains shown)
VH: B2 VH
VL: DIQMTQSPSSLSASVGDRVTITCRASQSISSYLNWYQQKPGKAPNLLIYAASSLQSGVPSRFSGSGSETDFTLTISSLQPEDFATYYCQQSHSVSFTFGPGTKVDIK
notes: Purified from hybridoma supernatant as a murine/human chimeric antibody (human variable domains, mouse constant regions); also called 02D10
B5: 9H04 (hybridoma) (antibody, V domains shown)
VH: QVQLVESGGGLVKPGGSLRLSCAASRFTLSDYYMTWIRQAPGKGLEWVSYISSSGNTIYYADSVKGRFTISRDNAKNSLYLQMNSLRAEDTAVYYCARDLSGSYWDYYYGMDVWGQGTTVTVSS
VL: AIQLTQSPSSLSTSVGDRVTIACRASQGINNALAWYQQKPGKAPKLLIYDASSLESGVPSRFSGSGSGTDFTLTISSLQPEDFATYYCQQFNSYPRTFGQGTKVEIK
notes: Purified from hybridoma supernatant as a murine/human chimeric antibody (human variable domains, mouse constant regions); also called 09H04
B6: 19H01 (hybridoma) (antibody, V domains shown)
VH: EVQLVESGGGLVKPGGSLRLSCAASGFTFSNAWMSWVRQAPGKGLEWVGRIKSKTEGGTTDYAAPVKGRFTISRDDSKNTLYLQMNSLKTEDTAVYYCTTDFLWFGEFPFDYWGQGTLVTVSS
VL: DIQMTQSPSSLSASVGDRVTITCRASQGISNYLAWYQQKPGKIPKLLIYAASTLQSGVPSRFSGSGSGTDFTLTISSLQPEDVATYYCQKYNSAPRTFGQGTKVEIK
notes: Purified from hybridoma supernatant as a murine/human chimeric antibody (human variable domains, mouse constant regions)

Experiments:
[1] = target: T1, Recombinant Human OX40L (Leader sequence, Isoleucine Zipper and FLAG Sequence Included) (human); experiment: HTRF receptor neutralisation: antibody titrated against biotinylated hOX40L and OX40RFc-AF647; mean +/- SEM of three experiments
T1 construct: It was used biotinylated in the HTRF assays and unlabelled in SPR and in the IL-2 release assay; also called hOX40L; recombinant hOX40L
T1 sequence (chain, as listed by the source limits assumed): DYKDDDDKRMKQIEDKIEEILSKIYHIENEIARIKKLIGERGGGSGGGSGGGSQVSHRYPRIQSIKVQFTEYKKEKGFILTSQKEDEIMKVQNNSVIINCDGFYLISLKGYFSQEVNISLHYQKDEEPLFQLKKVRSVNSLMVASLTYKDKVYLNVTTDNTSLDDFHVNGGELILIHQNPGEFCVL

[2] = target: T2, Recombinant Rhesus OX40L (Leader Sequence, FLAG and Isoleucine zipper included) (Rhesus (Macaca mulatta)); experiment: SPR (ProteOn XPR36), antibody captured, rhesus OX40L at 256 nM, 25 C; CNROR = cannot resolve off-rate
T2 construct: also called RhsOX40L; Rhesus monkey OX40L
T2 sequence (chain, as listed by the source limits assumed): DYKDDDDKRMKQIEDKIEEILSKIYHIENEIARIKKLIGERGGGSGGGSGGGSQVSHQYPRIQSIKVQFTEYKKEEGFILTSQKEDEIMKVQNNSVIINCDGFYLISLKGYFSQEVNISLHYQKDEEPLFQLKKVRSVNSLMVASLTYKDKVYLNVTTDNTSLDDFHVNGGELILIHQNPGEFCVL
Method: (§1) SPR analysis was carried out using the ProteOn™ XPR36 Array System (BioRad). Anti-mouse IgG (GE Healthcare BR-1008-38) was immobilised on a GLM biosensor surface using amine coupling, the surface was then blocked using 1 M ethanolamine. Test antibodies were captured on this surface and recombinant hOX40L (human and rhesus) were used at a single concentration of 256 nM, binding sensorgrams were double referenced using a buffer injection (i.e. 0 nM) to remove baseline drift and injection artefacts. Apparent affinities for the OX40L-antibody interaction were determined using the 1:1 model inherent to the ProteOn XPR36 analysis software. The assay was run using HBS-EP (Teknova) as running buffer and carried out at 25° C.

[3] = target: T1, Recombinant Human OX40L (Leader …); experiment: cell-based or functional assay
[4] = target: T1, Recombinant Human OX40L (Leader …); experiment: HTRF ligand/receptor neutralisation: antibody titrated against biotinylated hOX40L; the blocked ligand is OX40RFc-AF647; streptavidin cryptate detection
Method: Fully human purified IgG or other inhibitor were tested in order to establish the clone potency as measured by IC₅₀ values in the assay. Antibodies recombinantly expressed and purified were titrated by diluting in HTRF assay buffer and 5 μL of this titration transferred to a white 384 well low volume non-binding surface polystyrene plate (Greiner). Biotinylated OX40L was diluted in HTRF assay buffer to a working concentration of 2.4 nM and 5 μL added. […] Streptavidin cryptate (CISBIO) was diluted in HTRF assay buffer to working concentration of 1:100 and 5 μL added to all wells of the plate. Plates were covered, protected from light and incubated at room temperature for 3 hrs prior to reading time resolved fluorescence at 620 nm and 665 nm emission wavelengths using an EnVision plate reader (Perkin Elmer). Data were analysed by calculating delta F as described in Equation 4 and percentage of receptor for each sample according to Equation 5 or in some cases Equation 6. IC₅₀ values were determined using GraphPad Prism software by curve fitting using a four-parameter logistic equation (Equation 7) (FIG. 1).

[5] = target: T1, Recombinant Human OX40L (Leader …); experiment: SPR (ProteOn XPR36), apparent affinity, antibody captured on anti-mouse IgG, hOX40L at 256 nM, 1:1 model, 25 C
Method: as §1

| Binder | IC50 [1] [nM] | binding result [2] | Primary T-cell Assay IC50 nM (recombinant OX40L induced IL2 release from primary human T-cells) [3] [nM] | IC50 (read off the curve) [4] [nM] | Kd [5] [nM] |
| --- | --- | --- | --- | --- | --- |
| B1 | 1.2 | binds | 0.83 | ~1 | – |
| B2 | 0.75 | binds | 0.81 | ~0.8 | – |
| B3 | – | binds | – | – | – |
| B4 | – | binds | – | – | – |
| B5 | – | – | – | – | 5.3 |
| B6 | – | – | – | – | 2.2 |
